Starred links: 1 amine or outer side, 2 acyl side, 3 side chain; linkers in the order of their positions; H or OH if unused. Non-standard residues stand in square brackets, D forms with d. Groups on a side chain read outwards from the residue. No end group written: not given here. *: point of attachment. C20 diacid = O=C(O)CCCCCCCCCCCCCCCCCCC(=O)*; C18 diacid = O=C(O)CCCCCCCCCCCCCCCCC(=O)*; γGlu = O=C(O)[C@H](CCC(=O)[*:2])N[*:1]; εLys = N[C@@H](CCCCN[*:1])C(=O)[*:2]; Aib = CC(C)(N)C(=O)O
T1: human GIP receptor (human, UniProt P48546 22-466)
T1 sequence (looked up): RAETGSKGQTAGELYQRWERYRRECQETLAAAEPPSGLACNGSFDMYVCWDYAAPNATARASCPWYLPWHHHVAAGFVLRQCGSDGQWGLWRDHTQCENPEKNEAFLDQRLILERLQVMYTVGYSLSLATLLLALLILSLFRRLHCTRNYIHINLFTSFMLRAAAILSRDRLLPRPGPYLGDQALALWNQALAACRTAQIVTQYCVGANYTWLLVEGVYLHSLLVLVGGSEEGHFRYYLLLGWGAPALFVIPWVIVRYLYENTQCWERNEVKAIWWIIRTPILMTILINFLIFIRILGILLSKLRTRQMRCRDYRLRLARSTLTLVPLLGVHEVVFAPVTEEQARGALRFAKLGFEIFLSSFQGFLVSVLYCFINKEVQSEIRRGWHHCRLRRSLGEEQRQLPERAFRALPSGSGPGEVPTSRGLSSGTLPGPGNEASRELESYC

B1: Compound No. 14 (peptide)
peptide: Y[Aib]EGTFTSDYSIALEK([εLys-εLys-γGlu-C18 diacid])QAAREFINWLLAGGPSSGAPPPS-OH
modifications: N-terminus assumed
SMILES: CC[C@H](C)[C@H](NC(=O)[C@H](CO)NC(=O)[C@H](Cc1ccc(O)cc1)NC(=O)[C@H](CC(=O)O)NC(=O)[C@H](CO)NC(=O)[C@@H](NC(=O)[C@H](Cc1ccccc1)NC(=O)[C@@H](NC(=O)CNC(=O)[C@H](CCC(=O)O)NC(=O)C(C)(C)NC(=O)[C@@H](N)Cc1ccc(O)cc1)[C@@H](C)O)[C@@H](C)O)C(=O)N[C@@H](C)C(=O)N[C@@H](CC(C)C)C(=O)N[C@@H](CCC(=O)O)C(=O)N[C@@H](CCCCNC(=O)[C@@H](N)CCCCNC(=O)[C@@H](N)CCCCNC(=O)CC[C@H](NC(=O)CCCCCCCCCCCCCCCCC(=O)O)C(=O)O)C(=O)N[C@@H](CCC(N)=O)C(=O)N[C@@H](C)C(=O)N[C@@H](C)C(=O)N[C@@H](CCCNC(=N)N)C(=O)N[C@@H](CCC(=O)O)C(=O)N[C@@H](Cc1ccccc1)C(=O)N[C@H](C(=O)N[C@@H](CC(N)=O)C(=O)N[C@@H](Cc1c[nH]c2ccccc12)C(=O)N[C@@H](CC(C)C)C(=O)N[C@@H](CC(C)C)C(=O)N[C@@H](C)C(=O)NCC(=O)NCC(=O)N1CCC[C@H]1C(=O)N[C@@H](CO)C(=O)N[C@@H](CO)C(=O)NCC(=O)N[C@@H](C)C(=O)N1CCC[C@H]1C(=O)N1CCC[C@H]1C(=O)N1CCC[C@H]1C(=O)N[C@@H](CO)C(=O)O)[C@@H](C)CC
B2: Compound No. 17 (peptide)
peptide: YAEGTFTSDYSIYLEK([εLys-εLys-γGlu-C18 diacid])QAAREFINWLLAGGPSSGAPPPS-OH
modifications: N-terminus assumed
SMILES: CC[C@H](C)[C@H](NC(=O)[C@H](Cc1ccccc1)NC(=O)[C@H](CCC(=O)O)NC(=O)[C@H](CCCNC(=N)N)NC(=O)[C@H](C)NC(=O)[C@H](C)NC(=O)[C@H](CCC(N)=O)NC(=O)[C@H](CCCCNC(=O)[C@@H](N)CCCCNC(=O)[C@@H](N)CCCCNC(=O)CC[C@H](NC(=O)CCCCCCCCCCCCCCCCC(=O)O)C(=O)O)NC(=O)[C@H](CCC(=O)O)NC(=O)[C@H](CC(C)C)NC(=O)[C@H](Cc1ccc(O)cc1)NC(=O)[C@@H](NC(=O)[C@H](CO)NC(=O)[C@H](Cc1ccc(O)cc1)NC(=O)[C@H](CC(=O)O)NC(=O)[C@H](CO)NC(=O)[C@@H](NC(=O)[C@H](Cc1ccccc1)NC(=O)[C@@H](NC(=O)CNC(=O)[C@H](CCC(=O)O)NC(=O)[C@H](C)NC(=O)[C@@H](N)Cc1ccc(O)cc1)[C@@H](C)O)[C@@H](C)O)[C@@H](C)CC)C(=O)N[C@@H](CC(N)=O)C(=O)N[C@@H](Cc1c[nH]c2ccccc12)C(=O)N[C@@H](CC(C)C)C(=O)N[C@@H](CC(C)C)C(=O)N[C@@H](C)C(=O)NCC(=O)NCC(=O)N1CCC[C@H]1C(=O)N[C@@H](CO)C(=O)N[C@@H](CO)C(=O)NCC(=O)N[C@@H](C)C(=O)N1CCC[C@H]1C(=O)N1CCC[C@H]1C(=O)N1CCC[C@H]1C(=O)N[C@@H](CO)C(=O)O
B3: Compound No. 16 (peptide)
peptide: Y[Aib]EGTFTSDYSIYLEK([εLys-εLys-γGlu-C20 diacid])QAAREFINWLLAGGPSSGAPPPS-OH
modifications: N-terminus assumed
SMILES: CC[C@H](C)[C@H](NC(=O)[C@H](Cc1ccccc1)NC(=O)[C@H](CCC(=O)O)NC(=O)[C@H](CCCNC(=N)N)NC(=O)[C@H](C)NC(=O)[C@H](C)NC(=O)[C@H](CCC(N)=O)NC(=O)[C@H](CCCCNC(=O)[C@@H](N)CCCCNC(=O)[C@@H](N)CCCCNC(=O)CC[C@H](NC(=O)CCCCCCCCCCCCCCCCCCC(=O)O)C(=O)O)NC(=O)[C@H](CCC(=O)O)NC(=O)[C@H](CC(C)C)NC(=O)[C@H](Cc1ccc(O)cc1)NC(=O)[C@@H](NC(=O)[C@H](CO)NC(=O)[C@H](Cc1ccc(O)cc1)NC(=O)[C@H](CC(=O)O)NC(=O)[C@H](CO)NC(=O)[C@@H](NC(=O)[C@H](Cc1ccccc1)NC(=O)[C@@H](NC(=O)CNC(=O)[C@H](CCC(=O)O)NC(=O)C(C)(C)NC(=O)[C@@H](N)Cc1ccc(O)cc1)[C@@H](C)O)[C@@H](C)O)[C@@H](C)CC)C(=O)N[C@@H](CC(N)=O)C(=O)N[C@@H](Cc1c[nH]c2ccccc12)C(=O)N[C@@H](CC(C)C)C(=O)N[C@@H](CC(C)C)C(=O)N[C@@H](C)C(=O)NCC(=O)NCC(=O)N1CCC[C@H]1C(=O)N[C@@H](CO)C(=O)N[C@@H](CO)C(=O)NCC(=O)N[C@@H](C)C(=O)N1CCC[C@H]1C(=O)N1CCC[C@H]1C(=O)N1CCC[C@H]1C(=O)N[C@@H](CO)C(=O)O
B4: Compound No. 15 (peptide)
peptide: Y[Aib]EGTFTSDYSILLEK([εLys-εLys-γGlu-C18 diacid])QAAREFINWLLAGGPSSGAPPPS-OH
modifications: N-terminus assumed
SMILES: CC[C@H](C)[C@H](NC(=O)[C@H](Cc1ccccc1)NC(=O)[C@H](CCC(=O)O)NC(=O)[C@H](CCCNC(=N)N)NC(=O)[C@H](C)NC(=O)[C@H](C)NC(=O)[C@H](CCC(N)=O)NC(=O)[C@H](CCCCNC(=O)[C@@H](N)CCCCNC(=O)[C@@H](N)CCCCNC(=O)CC[C@H](NC(=O)CCCCCCCCCCCCCCCCC(=O)O)C(=O)O)NC(=O)[C@H](CCC(=O)O)NC(=O)[C@H](CC(C)C)NC(=O)[C@H](CC(C)C)NC(=O)[C@@H](NC(=O)[C@H](CO)NC(=O)[C@H](Cc1ccc(O)cc1)NC(=O)[C@H](CC(=O)O)NC(=O)[C@H](CO)NC(=O)[C@@H](NC(=O)[C@H](Cc1ccccc1)NC(=O)[C@@H](NC(=O)CNC(=O)[C@H](CCC(=O)O)NC(=O)C(C)(C)NC(=O)[C@@H](N)Cc1ccc(O)cc1)[C@@H](C)O)[C@@H](C)O)[C@@H](C)CC)C(=O)N[C@@H](CC(N)=O)C(=O)N[C@@H](Cc1c[nH]c2ccccc12)C(=O)N[C@@H](CC(C)C)C(=O)N[C@@H](CC(C)C)C(=O)N[C@@H](C)C(=O)NCC(=O)NCC(=O)N1CCC[C@H]1C(=O)N[C@@H](CO)C(=O)N[C@@H](CO)C(=O)NCC(=O)N[C@@H](C)C(=O)N1CCC[C@H]1C(=O)N1CCC[C@H]1C(=O)N1CCC[C@H]1C(=O)N[C@@H](CO)C(=O)O
B5: Compound No. 13 (peptide)
peptide: Y[Aib]EGTFTSDYSIYLEK([εLys-εLys-γGlu-C18 diacid])QAAREFIEWLLRGGPESGAPPPS-OH
modifications: N-terminus assumed
SMILES: CC[C@H](C)[C@H](NC(=O)[C@H](Cc1ccccc1)NC(=O)[C@H](CCC(=O)O)NC(=O)[C@H](CCCNC(=N)N)NC(=O)[C@H](C)NC(=O)[C@H](C)NC(=O)[C@H](CCC(N)=O)NC(=O)[C@H](CCCCNC(=O)[C@@H](N)CCCCNC(=O)[C@@H](N)CCCCNC(=O)CC[C@H](NC(=O)CCCCCCCCCCCCCCCCC(=O)O)C(=O)O)NC(=O)[C@H](CCC(=O)O)NC(=O)[C@H](CC(C)C)NC(=O)[C@H](Cc1ccc(O)cc1)NC(=O)[C@@H](NC(=O)[C@H](CO)NC(=O)[C@H](Cc1ccc(O)cc1)NC(=O)[C@H](CC(=O)O)NC(=O)[C@H](CO)NC(=O)[C@@H](NC(=O)[C@H](Cc1ccccc1)NC(=O)[C@@H](NC(=O)CNC(=O)[C@H](CCC(=O)O)NC(=O)C(C)(C)NC(=O)[C@@H](N)Cc1ccc(O)cc1)[C@@H](C)O)[C@@H](C)O)[C@@H](C)CC)C(=O)N[C@@H](CCC(=O)O)C(=O)N[C@@H](Cc1c[nH]c2ccccc12)C(=O)N[C@@H](CC(C)C)C(=O)N[C@@H](CC(C)C)C(=O)N[C@@H](CCCNC(=N)N)C(=O)NCC(=O)NCC(=O)N1CCC[C@H]1C(=O)N[C@@H](CCC(=O)O)C(=O)N[C@@H](CO)C(=O)NCC(=O)N[C@@H](C)C(=O)N1CCC[C@H]1C(=O)N1CCC[C@H]1C(=O)N1CCC[C@H]1C(=O)N[C@@H](CO)C(=O)O
B6: Compound No. 38 (peptide)
peptide: Y[Aib]EGTFTSDYSIYLEEK([εLys-εLys-γGlu-C18 diacid])AAREFINWLLAGGPSSGAPPPS-OH
modifications: N-terminus assumed
SMILES: CC[C@H](C)[C@H](NC(=O)[C@H](Cc1ccccc1)NC(=O)[C@H](CCC(=O)O)NC(=O)[C@H](CCCNC(=N)N)NC(=O)[C@H](C)NC(=O)[C@H](C)NC(=O)[C@H](CCCCNC(=O)[C@@H](N)CCCCNC(=O)[C@@H](N)CCCCNC(=O)CC[C@H](NC(=O)CCCCCCCCCCCCCCCCC(=O)O)C(=O)O)NC(=O)[C@H](CCC(=O)O)NC(=O)[C@H](CCC(=O)O)NC(=O)[C@H](CC(C)C)NC(=O)[C@H](Cc1ccc(O)cc1)NC(=O)[C@@H](NC(=O)[C@H](CO)NC(=O)[C@H](Cc1ccc(O)cc1)NC(=O)[C@H](CC(=O)O)NC(=O)[C@H](CO)NC(=O)[C@@H](NC(=O)[C@H](Cc1ccccc1)NC(=O)[C@@H](NC(=O)CNC(=O)[C@H](CCC(=O)O)NC(=O)C(C)(C)NC(=O)[C@@H](N)Cc1ccc(O)cc1)[C@@H](C)O)[C@@H](C)O)[C@@H](C)CC)C(=O)N[C@@H](CC(N)=O)C(=O)N[C@@H](Cc1c[nH]c2ccccc12)C(=O)N[C@@H](CC(C)C)C(=O)N[C@@H](CC(C)C)C(=O)N[C@@H](C)C(=O)NCC(=O)NCC(=O)N1CCC[C@H]1C(=O)N[C@@H](CO)C(=O)N[C@@H](CO)C(=O)NCC(=O)N[C@@H](C)C(=O)N1CCC[C@H]1C(=O)N1CCC[C@H]1C(=O)N1CCC[C@H]1C(=O)N[C@@H](CO)C(=O)O

Assays:
[1] = molecular target: T1, human GIP receptor; assay: cell-based or functional assay
[2] = molecular target: human GLP-1 receptor (human, UniProt P43220 24-463); assay: cell-based or functional assay

Binder	hGIPR, CRE Luc 0% HSA EC50 (pM) [1] [pM]	hGIPR, CRE Luc 1% HSA EC50 (pM) [1] [pM]	hGLP-1R, CRE Luc 0% HSA EC50 (pM) [2] [pM]	hGLP-1R, CRE Luc 1% HSA EC50 (pM) [2] [pM]
B1	11.6	580	5.4	306
B2	34.9	1320	5.2	257
B3	13.4	804	3.1	321
B4	7.1	138	5	130
B5	13.9	257	7.4	204
B6	12.4	815	3.1	259
